Where no end group is shown, it is not given here.
B1: Phage-2778 (peptide)
peptide: QDKWCTPTWMCEGL
B2: Phage-2776 (peptide)
peptide: GPKWCTPTWMCEFS
B3: Phage-2816 (peptide)
peptide: GDKWCKPSWMCDFF
B4: Phage-2812 (peptide)
peptide: VGPWCIPDWMCDVV
B5: Phage-2787 (peptide)
peptide: LWKSCTPEWMCAEW
modifications: cysteine pairing not given here; also: fused to pIII, displayed on bacteriophage
B6: Phage-2789 (peptide)
peptide: VGKWCTPEWMCSGF
B7: Phage-2811 (peptide)
peptide: VPKWCTPSWMCEFT
B8: Phage-2800 (peptide)
peptide: DYKWCTPPWMCDSR
B9: Phage-2807 (peptide)
peptide: WENWCIPQWMCGTA
B10: Phage-2799 (peptide)
peptide: ESKWCVPTWMCAEN
modifications: cysteine pairing not given here; also: fused to pIII, displayed on bacteriophage
B11: Phage-2785 (peptide)
peptide: DVKWCTPPWMCLSD
B12: Phage-2792 (peptide)
peptide: TQHWCTPIWMCEGL
B13: Phage-2804 (peptide)
peptide: EGKWCTPTWMCQGF
B14: Phage-2788 (peptide)
peptide: SVKWCTPSWMCTEW
B15: Phage-2793 (peptide)
peptide: VTNWCTPPWMCEML
B16: Phage-2808 (peptide)
peptide: MEKWCTPRWMCVGM
B17: Phage-2790 (peptide)
peptide: VMKWCTPSWMCAEA
modifications: cysteine pairing not given here; also: fused to pIII, displayed on bacteriophage
B18: Phage-2794 (peptide)
peptide: TEKWCIPQWMCVRT
B19: Phage-2817 (peptide)
peptide: EAKWCTPPWMCSLV
B20: Phage-2810 (peptide)
peptide: MDIWCKPRWMCEEY
B21: Phage-2779 (peptide)
peptide: DQNWCIPHWMCVGI
B22: Phage-2809 (peptide)
peptide: VTKLCIPEWMCVIQ
B23: Phage-2806 (peptide)
peptide: GATWCTPTWMCTGF
B24: Phage-2784 (peptide)
peptide: DMKLCRPAWMCMHN
B25: Phage-2802 (peptide)
peptide: TPKWCTPAWMCVVS
B26: Phage-2813 (peptide)
peptide: FSKLCTPPWMCSVS
B27: Phage-2795 (peptide)
peptide: FEKWCTPQWMCNSM
B28: Phage-2814 (peptide)
peptide: PMKWCTPPWMCSYS
B29: Phage-2801 (peptide)
peptide: SDNWCKPEWMCVGH
B30: Phage-2777 (peptide)
peptide: GSNWCKPAWMCSVA
B31: Phage-2798 (peptide)
peptide: HFKWCIPPWMCLEI
B32: Phage-2805 (peptide)
peptide: MMHWCTPPWMCEFS
B33: Phage-2797 (peptide)
peptide: ERIWCTPKWMCETF
B34: Phage-2786 (peptide)
peptide: EENWCIPVWMCERL
B35: Phage-2775 (peptide)
peptide: DLKWCVPTWMCNWS
B36: Phage-2791 (peptide)
peptide: WEKWCTPSWMCSGI
B37: Phage-2780 (peptide)
peptide: VLNWCTPPWMCSGI
B38: Phage-2803 (peptide)
peptide: VKHVCMPEWMCYWS
modifications: cysteine pairing not given here; also: fused to pIII, displayed on bacteriophage
B39: Phage-2781 (peptide)
peptide: GWNWCVPQWMCTTS
B40: Phage-2796 (peptide)
peptide: LNNWCTPAWMCVGY
B41: Phage-2782 (peptide)
peptide: QDKMCRPDWMCMNQ
B42: Phage-2815 (peptide)
peptide: IDKWCVPAWMCSPA
B43: Phage-2783 (peptide)
peptide: VHKMCTPPWMCVTQ

Experiments:
[1] = molecular target: T1, PSMA Fab; assay: clonal phage ELISA on biotinylated PSMA Fab captured on neutravidin plates, anti-M13 HRP detection;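 also: crude clonal phage supernatants tested, before phage were added, wells were pretreated with PSMA antigen in blocking buffer or with blocking buffer only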
T1 construct: Biotinylated PSMA Fab captured on neutravidin coated plates in the phage ELISA; also called Anti-PSMA Fab; 006 PSMA Fab
Method: (§1) Clonal phage were harvested as crude supernatants and screened via standard ELISAs. […] Prior to the addition of clonal phage. wells were incubated with blocking buffer and PSMA antigen or blocking buffer alone. Without washing or aspirating, clonal phage supernatants were then added to the wells and incubated for a short time. Wells were then washed followed by detection of bound phage using a horse radish conjugated anti-M13 antibody.

[2] = molecular target: T1, PSMA Fab; assay: clonal phage ELISA on captured PSMA Fab pre-incubated with PSMA antigen as competitor, anti-M13 HRP detection;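 also: crude clonal phage supernatants tested by ELISA, wells first treated with blocking buffer plus PSMA antigen, bound phage read out via HRP-linked anti-M13 antibody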
Method: as §1

[3] = molecular target: T2, PSMA Fab (006 PSMA Fab) (biotinylated for capture on neutravidin plates (site not stated)); assay: clonal phage ELISA on biotinylated PSMA Fab captured on neutravidin plates, anti-M13-HRP detection;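 also: crude clonal phage supernatants added to wells preincubated with PSMA antigen or with blocking buffer only (no wash between), briefly incubated, then washed before detecting bound phage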
T2 construct: also called Anti-PSMA Fab

[4] = molecular target: T2, PSMA Fab (006 PSMA Fab); assay: clonal phage ELISA on captured PSMA Fab pre-incubated with PSMA antigen as competitor, anti-M13-HRP detection;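 also: wells blocked with buffer plus PSMA antigen before phage addition, with blocking buffer alone as the no-competitor control, bound phage detected after washing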
Method: as §1

[5] = molecular target: T3, PSMA Fab (biotinylated (site not stated)); assay: clonal phage ELISA on captured biotinylated PSMA Fab; competitor: PSMA antigen at saturating concentration
T3 construct: also called Anti-PSMA Fab; 006 PSMA Fab

[6] = molecular target: T3, PSMA Fab; assay: clonal phage ELISA on biotinylated PSMA Fab captured on neutravidin plates, anti-M13 HRP detection;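 also: crude clonal phage supernatants tested, before phage were added, wells were pretreated with PSMA antigen in blocking buffer or with blocking buffer only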
Method: as §1

| Binder | Phage binding ELISA signal, Anti-PSMA Fab [3] | Phage binding ELISA signal, Anti-PSMA Fab in presence of PSMA [4] | phage binding ELISA signal (Anti-PSMA Fab, wells pre-incubated with PSMA antigen) [5] | Phage binding ELISA signal, Anti-PSMA Fab [6] | further results |
| --- | --- | --- | --- | --- | --- |
| B1 |  |  |  |  | Phage binding ELISA signal, Anti-PSMA Fab [1]: 0.631; phage binding ELISA signal (Anti-PSMA Fab, PSMA antigen present) [2]: 0.0777 |
| B2 |  |  |  |  | Phage binding ELISA signal, Anti-PSMA Fab [1]: 0.638; phage binding ELISA signal (Anti-PSMA Fab, PSMA antigen present) [2]: 0.0754 |
| B3 | 0.526 | 0.072 |  |  |  |
| B4 | 0.554 | 0.0755 |  |  |  |
| B5 |  |  | 0.0991 | 0.606 |  |
| B6 |  |  | 0.0562 | 0.6 |  |
| B7 | 0.56 | 0.0648 |  |  |  |
| B8 |  |  | 0.0697 | 0.58 |  |
| B9 | 0.565 | 0.141 |  |  |  |
| B10 |  |  | 0.0578 | 0.583 |  |
| B11 |  |  |  |  | Phage binding ELISA signal, Anti-PSMA Fab [1]: 0.613; phage binding ELISA signal (Anti-PSMA Fab, PSMA antigen present) [2]: 0.1 |
| B12 |  |  | 0.0819 | 0.597 |  |
| B13 | 0.57 | 0.0945 |  |  |  |
| B14 |  |  | 0.104 | 0.601 |  |
| B15 |  |  | 0.213 | 0.596 |  |
| B16 | 0.565 | 0.0734 |  |  |  |
| B17 |  |  | 0.0742 | 0.599 |  |
| B18 |  |  | 0.0656 | 0.592 |  |
| B19 | 0.525 | 0.0546 |  |  |  |
| B20 | 0.562 | 0.0676 |  |  |  |
| B21 |  |  |  |  | Phage binding ELISA signal, Anti-PSMA Fab [1]: 0.625; phage binding ELISA signal (Anti-PSMA Fab, PSMA antigen present) [2]: 0.0883 |
| B22 | 0.562 | 0.0595 |  |  |  |

| Binder | Phage binding ELISA signal, Anti-PSMA Fab [3] | Phage binding ELISA signal, Anti-PSMA Fab in presence of PSMA [4] | phage binding ELISA signal (Anti-PSMA Fab, wells pre-incubated with PSMA antigen) [5] | Phage binding ELISA signal, Anti-PSMA Fab [6] | further results |
| --- | --- | --- | --- | --- | --- |
| B23 | 0.566 | 0.117 |  |  |  |
| B24 |  |  |  |  | Phage binding ELISA signal, Anti-PSMA Fab [1]: 0.621; phage binding ELISA signal (Anti-PSMA Fab, PSMA antigen present) [2]: 0.0536 |
| B25 |  |  | 0.077 | 0.575 |  |
| B26 | 0.543 | 0.276 |  |  |  |
| B27 |  |  | 0.0699 | 0.59 |  |
| B28 | 0.538 | 0.063 |  |  |  |
| B29 |  |  | 0.0873 | 0.578 |  |
| B30 |  |  |  |  | Phage binding ELISA signal, Anti-PSMA Fab [1]: 0.634; phage binding ELISA signal (Anti-PSMA Fab, PSMA antigen present) [2]: 0.0623 |
| B31 |  |  | 0.298 | 0.588 |  |
| B32 | 0.568 | 0.0626 |  |  |  |
| B33 |  |  | 0.0657 | 0.589 |  |
| B34 |  |  |  |  | Phage binding ELISA signal, Anti-PSMA Fab [1]: 0.607; phage binding ELISA signal (Anti-PSMA Fab, PSMA antigen present) [2]: 0.0721 |
| B35 |  |  |  |  | Phage binding ELISA signal, Anti-PSMA Fab [1]: 0.639; phage binding ELISA signal (Anti-PSMA Fab, PSMA antigen present) [2]: 0.0692 |
| B36 |  |  | 0.0859 | 0.598 |  |
| B37 |  |  |  |  | Phage binding ELISA signal, Anti-PSMA Fab [1]: 0.624; phage binding ELISA signal (Anti-PSMA Fab, PSMA antigen present) [2]: 0.0732 |
| B38 | 0.57 | 0.0724 |  |  |  |
| B39 |  |  |  |  | Phage binding ELISA signal, Anti-PSMA Fab [1]: 0.623; phage binding ELISA signal (Anti-PSMA Fab, PSMA antigen present) [2]: 0.121 |
| B40 |  |  | 0.084 | 0.589 |  |
| B41 |  |  |  |  | Phage binding ELISA signal, Anti-PSMA Fab [1]: 0.621; phage binding ELISA signal (Anti-PSMA Fab, PSMA antigen present) [2]: 0.0706 |
| B42 | 0.538 | 0.06 |  |  |  |
| B43 |  |  |  |  | Phage binding ELISA signal, Anti-PSMA Fab [1]: 0.621; phage binding ELISA signal (Anti-PSMA Fab, PSMA antigen present) [2]: 0.0908 |

Reference: patent US20260242478A1 (published 2026)
